IntAct's records for PubMed 19487680

Legend:
[1] = biological target: rar1_arath RAR1 (UniProt Q9SE33)
[2] = biological target: sgt1b_arath SGT1B (UniProt Q9SUT5)
Sequence of sgt1b_arath SGT1B (Q9SUT5 whole entry): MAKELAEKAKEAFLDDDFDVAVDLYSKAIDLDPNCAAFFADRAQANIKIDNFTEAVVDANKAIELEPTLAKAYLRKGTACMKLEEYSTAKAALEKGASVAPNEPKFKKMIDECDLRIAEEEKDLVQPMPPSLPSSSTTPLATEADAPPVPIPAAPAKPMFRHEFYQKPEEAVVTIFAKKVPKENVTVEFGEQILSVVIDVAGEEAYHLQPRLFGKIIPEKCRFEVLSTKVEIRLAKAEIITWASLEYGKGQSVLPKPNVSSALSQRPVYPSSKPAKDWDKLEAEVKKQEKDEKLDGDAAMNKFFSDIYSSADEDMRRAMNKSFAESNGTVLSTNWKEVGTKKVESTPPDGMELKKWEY

Sequence of rar1_arath RAR1 (Q9SE33 whole entry): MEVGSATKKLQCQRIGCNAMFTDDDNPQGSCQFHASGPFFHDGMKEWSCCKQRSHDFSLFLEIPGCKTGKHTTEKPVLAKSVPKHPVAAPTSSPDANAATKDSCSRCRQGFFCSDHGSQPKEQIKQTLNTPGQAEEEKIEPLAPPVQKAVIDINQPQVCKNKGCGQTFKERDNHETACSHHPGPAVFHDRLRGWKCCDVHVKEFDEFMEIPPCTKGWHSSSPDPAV
Sequence of Heat shock protein 90-2 (Arabidopsis thaliana (Mouse-ear cress)), P55737 A42T (P55737 whole entry A42T): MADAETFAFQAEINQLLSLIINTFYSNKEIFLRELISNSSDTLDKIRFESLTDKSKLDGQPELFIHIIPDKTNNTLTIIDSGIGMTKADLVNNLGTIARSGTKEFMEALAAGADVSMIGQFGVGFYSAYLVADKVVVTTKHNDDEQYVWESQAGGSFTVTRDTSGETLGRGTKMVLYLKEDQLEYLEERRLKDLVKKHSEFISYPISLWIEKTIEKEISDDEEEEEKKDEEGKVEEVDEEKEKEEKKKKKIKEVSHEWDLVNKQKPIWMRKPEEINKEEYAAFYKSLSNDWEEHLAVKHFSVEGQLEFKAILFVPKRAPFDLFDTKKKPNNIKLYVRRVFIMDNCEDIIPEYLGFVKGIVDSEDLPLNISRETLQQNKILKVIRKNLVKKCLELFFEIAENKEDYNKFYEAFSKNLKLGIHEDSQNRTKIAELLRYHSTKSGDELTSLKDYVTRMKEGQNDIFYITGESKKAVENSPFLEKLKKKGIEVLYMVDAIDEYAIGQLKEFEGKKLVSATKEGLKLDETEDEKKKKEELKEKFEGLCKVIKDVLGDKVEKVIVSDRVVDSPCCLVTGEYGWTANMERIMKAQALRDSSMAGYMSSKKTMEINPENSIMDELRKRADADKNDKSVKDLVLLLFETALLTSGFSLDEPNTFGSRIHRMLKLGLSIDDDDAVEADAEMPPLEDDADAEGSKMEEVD
Sequence of Heat shock protein 90-2 (Arabidopsis thaliana (Mouse-ear cress)), P55737 R337C (P55737 whole entry R337C): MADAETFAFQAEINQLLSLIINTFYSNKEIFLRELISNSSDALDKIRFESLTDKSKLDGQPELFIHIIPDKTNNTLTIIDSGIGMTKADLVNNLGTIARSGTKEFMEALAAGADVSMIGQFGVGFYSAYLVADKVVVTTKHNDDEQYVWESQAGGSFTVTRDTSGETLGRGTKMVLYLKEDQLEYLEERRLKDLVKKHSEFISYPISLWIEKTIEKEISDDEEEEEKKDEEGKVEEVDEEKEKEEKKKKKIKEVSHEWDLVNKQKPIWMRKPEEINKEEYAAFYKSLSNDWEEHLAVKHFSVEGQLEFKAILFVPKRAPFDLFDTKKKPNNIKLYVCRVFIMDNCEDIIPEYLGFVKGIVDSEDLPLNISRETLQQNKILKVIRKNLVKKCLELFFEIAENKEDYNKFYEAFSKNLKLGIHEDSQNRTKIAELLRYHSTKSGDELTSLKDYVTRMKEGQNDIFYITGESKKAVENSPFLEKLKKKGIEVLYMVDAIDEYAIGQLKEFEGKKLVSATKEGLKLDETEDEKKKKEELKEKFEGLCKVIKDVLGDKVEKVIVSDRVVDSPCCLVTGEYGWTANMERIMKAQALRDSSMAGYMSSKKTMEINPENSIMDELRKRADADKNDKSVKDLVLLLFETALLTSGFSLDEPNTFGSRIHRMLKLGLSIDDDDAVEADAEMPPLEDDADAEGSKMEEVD
Sequence of Heat shock protein 90-2 (Arabidopsis thaliana (Mouse-ear cress)), P55737 G95E (P55737 whole entry G95E): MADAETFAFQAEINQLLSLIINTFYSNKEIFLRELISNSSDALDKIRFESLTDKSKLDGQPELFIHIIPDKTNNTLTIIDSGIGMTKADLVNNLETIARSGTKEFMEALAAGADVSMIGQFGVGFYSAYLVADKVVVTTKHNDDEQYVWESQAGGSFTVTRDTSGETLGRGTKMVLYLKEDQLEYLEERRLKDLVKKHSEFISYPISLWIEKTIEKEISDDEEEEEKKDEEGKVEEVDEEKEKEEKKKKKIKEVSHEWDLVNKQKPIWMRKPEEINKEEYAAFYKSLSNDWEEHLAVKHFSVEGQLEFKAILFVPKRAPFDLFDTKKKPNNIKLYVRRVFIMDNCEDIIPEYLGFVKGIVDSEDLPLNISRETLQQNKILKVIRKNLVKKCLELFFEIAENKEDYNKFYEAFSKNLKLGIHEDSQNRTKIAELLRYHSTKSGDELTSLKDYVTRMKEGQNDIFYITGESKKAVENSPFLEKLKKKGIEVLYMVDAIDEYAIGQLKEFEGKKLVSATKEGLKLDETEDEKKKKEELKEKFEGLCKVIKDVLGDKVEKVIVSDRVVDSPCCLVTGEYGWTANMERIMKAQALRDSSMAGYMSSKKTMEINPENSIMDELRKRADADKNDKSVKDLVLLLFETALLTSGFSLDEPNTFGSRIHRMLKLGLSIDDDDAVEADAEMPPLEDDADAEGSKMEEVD
Sequence of Heat shock protein 90-2 (Arabidopsis thaliana (Mouse-ear cress)), P55737 D80N (P55737 whole entry D80N): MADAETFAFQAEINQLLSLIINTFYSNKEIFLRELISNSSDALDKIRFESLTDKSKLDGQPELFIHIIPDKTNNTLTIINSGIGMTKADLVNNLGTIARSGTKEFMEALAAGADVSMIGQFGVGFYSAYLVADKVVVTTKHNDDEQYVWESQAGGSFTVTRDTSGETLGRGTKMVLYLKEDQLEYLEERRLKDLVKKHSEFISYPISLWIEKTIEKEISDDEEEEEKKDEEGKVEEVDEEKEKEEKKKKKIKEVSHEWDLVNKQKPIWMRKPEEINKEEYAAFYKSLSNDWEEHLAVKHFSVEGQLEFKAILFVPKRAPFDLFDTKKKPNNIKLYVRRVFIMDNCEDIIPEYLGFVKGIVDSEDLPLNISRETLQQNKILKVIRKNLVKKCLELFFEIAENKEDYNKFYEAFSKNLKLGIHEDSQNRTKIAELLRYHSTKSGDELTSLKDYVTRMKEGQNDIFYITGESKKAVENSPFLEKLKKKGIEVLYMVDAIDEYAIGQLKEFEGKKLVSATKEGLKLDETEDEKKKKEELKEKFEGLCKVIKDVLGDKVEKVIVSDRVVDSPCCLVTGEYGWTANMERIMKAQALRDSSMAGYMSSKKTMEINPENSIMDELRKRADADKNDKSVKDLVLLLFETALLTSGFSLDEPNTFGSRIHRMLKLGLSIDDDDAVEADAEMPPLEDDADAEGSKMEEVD
Sequence of Heat shock protein 90-2 (Arabidopsis thaliana (Mouse-ear cress)), P55737 S100F (P55737 whole entry S100F): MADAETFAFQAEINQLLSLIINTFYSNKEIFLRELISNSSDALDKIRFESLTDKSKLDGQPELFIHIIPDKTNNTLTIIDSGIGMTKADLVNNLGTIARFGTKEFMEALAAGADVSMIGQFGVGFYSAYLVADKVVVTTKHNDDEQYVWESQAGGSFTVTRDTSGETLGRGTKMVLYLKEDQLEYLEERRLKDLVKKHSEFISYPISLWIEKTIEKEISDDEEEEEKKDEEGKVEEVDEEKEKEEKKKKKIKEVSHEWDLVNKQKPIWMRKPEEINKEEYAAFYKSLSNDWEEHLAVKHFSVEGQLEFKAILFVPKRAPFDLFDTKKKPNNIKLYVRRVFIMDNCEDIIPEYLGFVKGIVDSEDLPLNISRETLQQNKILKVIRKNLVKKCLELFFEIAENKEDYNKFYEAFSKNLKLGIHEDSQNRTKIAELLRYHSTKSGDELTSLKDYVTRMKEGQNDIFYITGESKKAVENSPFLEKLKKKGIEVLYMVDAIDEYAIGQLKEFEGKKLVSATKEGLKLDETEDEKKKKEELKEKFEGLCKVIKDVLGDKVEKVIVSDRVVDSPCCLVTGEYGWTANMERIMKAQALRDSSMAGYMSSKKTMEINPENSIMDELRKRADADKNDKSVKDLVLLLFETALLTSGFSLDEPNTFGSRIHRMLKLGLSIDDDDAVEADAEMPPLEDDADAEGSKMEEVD

effect of a mutation on the interaction [1] | effect of a mutation on the interaction [2] | Substance
disrupting interaction strength | disrupting interaction strength | Heat shock protein 90-2 (Arabidopsis thaliana (Mouse-ear cress)), P55737 A42T
disrupting interaction strength | disrupting interaction strength | Heat shock protein 90-2 (Arabidopsis thaliana (Mouse-ear cress)), P55737 D80N
decreasing interaction strength | disrupting interaction strength | Heat shock protein 90-2 (Arabidopsis thaliana (Mouse-ear cress)), P55737 G95E
disrupting interaction strength | decreasing interaction strength | Heat shock protein 90-2 (Arabidopsis thaliana (Mouse-ear cress)), P55737 R337C
 | disrupting interaction strength | Heat shock protein 90-2 (Arabidopsis thaliana (Mouse-ear cress)), P55737 S100F
